Kd data for one molecule are collected here from CN111471109A (SHENZHEN INST OF ADV TECH CAS, dated 2020).

The target in the assay is T1, FGFR4蛋白 (成纤维细胞生长因子受体4, recombinant protein antigen bought from 义翘神州 / Sino Biological) (human, UniProt P22455 22-369, limits assumed).
T1 construct: In the Western blot the protein was boiled and denatured; also called FGFR4蛋白抗原; fibroblast growth factor receptor 4
T1 sequence (looked up): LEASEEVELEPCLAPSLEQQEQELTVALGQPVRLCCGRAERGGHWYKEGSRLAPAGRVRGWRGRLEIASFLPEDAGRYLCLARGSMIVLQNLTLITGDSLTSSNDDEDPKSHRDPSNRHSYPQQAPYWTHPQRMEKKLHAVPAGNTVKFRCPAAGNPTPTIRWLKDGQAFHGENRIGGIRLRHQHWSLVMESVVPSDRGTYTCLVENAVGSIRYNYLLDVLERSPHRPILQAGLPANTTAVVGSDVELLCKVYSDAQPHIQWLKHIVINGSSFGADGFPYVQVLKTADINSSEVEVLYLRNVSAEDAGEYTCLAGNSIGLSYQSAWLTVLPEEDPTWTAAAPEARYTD
Put plainly: BLI (OCTET K2), FGFR4 protein 10 μg/ml loaded on AHC (Anti-hIgG Fc Capture) sensors, 6G12F5 in solution at 8.84-566.7 nM.

B1: 6G12F5抗体 (抗FGFR4的单克隆抗体6G12F5) (antibody, V domains shown)
VH: EVMLVESGGGLVKPGGSLKLSCAVSGFTFRNYAMSWVRQSPEKRLEWVAEISNGGRYIYYPDTVTGRFTISRDNAKNTLYLEMSSLRSEDTAMYYCVRGGEKTSGYVWFAYWGEGTLVTVG
VL: DIQMTQTPASLSASVEETVTITCRASENIYSYLAWYQQKQGRSPQLLLYNAKTLAEGVPSRFSGSGSGTQFSLKINSLQPEDFGIYYCQHFSGTPYTFGEGTKLEIT
notes: Mouse hybridoma monoclonal antibody (BALB/c), purified from ascites on Protein G and detected with anti-mouse IgG; also called FGFR4单克隆抗体; FGFR4抗体
One may read the Kd as the constant that tells how readily two partners part at equilibrium. On to B1, for which the Kd was below 1 pM.
